The assay deals with 750S immature HIV-1 capsids. Put plainly: HP68 immunodepletion-reconstitution of cell-free HIV-1 capsid assembly. The format is biochemical. The method, then:
WG extract (150 μl) was immunodepleted for 45 min at 4° C. with 100 μl beads coupled to antibody against WGHP68. Cell-free reactions (15 μl) were programmed (Lingappa et al., J. Cell Biol. 136:567-81 (1997)) using non-depleted WG or depleted WG. To some reactions containing depleted WG, purified WGHP68-GST or HuHP68-GST fusion protein or GST alone was added (2 μl of approx. 20 ng/μl) at the start of the reaction. After 3 hours at 26° C., NP40 was added to a final concentration of 1% and reactions underwent velocity sedimentation (5 ml, 15-60% sucrose gradients, Beckman MLS55 rotor: 45,000 rpm, 45 min). Thirty fractions, collected using a fractionator, were analyzed by SDS-PAGE and AR, followed by densitometry of Gag in each lane. For Proteinase K digestion, aliquots of fractions from the 500S and 750S regions of the gradient were collected and subjected to a 10 min incubation at RT with either no Proteinase K or 0.1 μg/ml Proteinase K. Digestion was terminated by adding SDS and freezing. Samples were analyzed by SDS-PAGE and AR. Graphs show average of three independent experiments (+/−SEM).
To generate purified HP68, WGHP68 and HuHP68 were subcloned into a pGEX vector (Pharmacia), to encode fusion proteins containing GST at the N-terminus. […] Concentration of fusion protein and GST in eluate was determined using the Coomassie Plus protein assay (Pierce). […]

B1: WGHP68-GST: fusion protein of wheat germ HP68 with GST at the N-terminus (protein)
chain: MADRLTRIAIVSEDKCKPKKCRQECKKSCPVVKTGKLCIEVSPVAKLAFISEELCIGCGICVKKCPFDAIEIINLPKDLEKDTTHRYGPNTFKLHRLPVPRPGQVLGLVGTNGIGKSTALKVLAGKLKPNLGRFKNPPDWQEILTYFRGSELQNYFTRILEDNLKAIIKPQYVDHIPKAVQGNVGQVLEQKDERDMKNELCVDLELNQVIDRNVGDLSGGELQRFAIAVVAVQSAEIYMFDEPSSYLDVKQRLKAARVIRSLLRSNSYVIVVEHDLSVLDYLSDFICCLYGKPGAYGVVTLPFSVREGINIFLAGFVPTENLRFRDESLTFKIAETQESAEEVATYQRYKYPTMSKTQGNFKLSVVEGEFTDSQIVVMLGENGTGKTTFIRMLAGLLKPDTMEGTEVEIPEFNVSYKPQKISPKFQHPVRHLLHSKIRDSYTHPQFVSDVMKPLQIEQLMDQEVINLSGGELQRVALCLCLGKPADIYLIDEPSAYLDSEQRIVASKVIKRFILHAKKTAFIVEHDFIMATYLADKVIVYEGLASIDCTANAPQSLVSGMNKFLSHLDITFRRDPTNYRPRINKLESTKDREQKNAGSYYYLDD
modifications: left off: a dimerising Fc or GST
notes: fusion protein of wheat germ HP68 with GST at the N-terminus
As to B1, the “total amount of radiolabeled Gag synthesized” value (added to HP68 immunodepleted WG extract) is on record as “had no effect”. The “increase in the amount of 750S capsid” value (added to HP68 immunodepleted WG extract programmed with HIV-1 Gag transcript) worked out at 3 fold.

The record behind these values is patent US7638269B2, “Viral capsid assembly intermediates and methods of production” (priority 1997, dated 2009).
